Ends that are not written are not given here.
How the values were obtained:
Assay type in all cases: cell-based
α4β1 [1] = biological target: T1, α4β1 (Homo sapiens, UniProt P05556+P13612); assay: J6 cell adhesion to GST-CS-1 (CS-1 fragment of fibronectin); details: for Inhibition of J6 cell adhesion to GST-CS-1 by synthetic peptide (α4β1-CS-1 interaction): varying peptide concentrations, 35 min 37° C.; for Relative potency compared to parent peptide SVVYGLR against α4β1 (J6 adhesion to GST-CS-1): SVVYGLR peptide with the residue mutated to alanine
T1 construct: Of the integrins analysed J6 express only α5β1 and α4βwhile HL60 express α4β1 and α5β1 and αLβ2; endogenous in cells; host or cells: J6 cells
Protocol: (§1) All proteins were coated onto MAXISORP plates (Nunc) overnight at 4° C. Each protein was diluted in PBS at the concentrations indicated, and a total volume of 100 μl added per well. Plates were washed twice in PBS then blocked with 3% BSA/PBS for 1 hr at 37° C., and finally washed twice in PBS. Routinely HL60 cells were pelleted and washed once in HBSS (Sigma) then spread in 25 mM Hepes 7.5, HBSS at 2×10^6 ml^−1 (100 μl per well) in the presence of 0.2 mM MnCl2 and 50 ng/ml TPA, with other additions as indicated. J6 cells were likewise pelleted and washed once in HBSS (Sigma) then spread in 25 mM Hepes (pH7.5), HBSS at 2×10^6ml^−1 (100 μl per well) in the presence of 0.2 mM MnCl2 and other additions as indicated. For antibody inhibition cells were preincubated with the antibody (10 μg/ml) on ice for 10 minutes. Cells were then allowed to attach for 35 minutes at 37° C., washed twice in PBS, once in ethanol, and fixed in ethanol for 20 minutes at room temperature. For quantitation cells were visualised by staining with 0.1% crystal violet (Sigma) for 10 minutes then lysed in 0.5% TRITON X-100 (Sigma) and read at 570 nm in a Wallac Victor plate reader.

α4β7 = biological target: T2, α4β7 (Homo sapiens, UniProt P13612+P26010); assay: α4β7 adhesion assay: RPMI8866 cell adhesion to zz-MAdCAM; details: for Inhibition of RPMI8866 cell adhesion to zz-MAdCAM by synthetic peptide: varying peptide concentrations, 20 min 37° C.; for Relative potency compared to parent peptide SVVYGLR against α4β7 (RPMI8866 adhesion to zz-MAdCAM): SVVYGLR peptide with the residue mutated to alanine
T2 construct: RPMI8866 cells which express α4β7, and small amounts of α4β1 and α5β1 were used; endogenous in cells; host or cells: RPMI8866 cells
T2 sequence (P13612 34-1032): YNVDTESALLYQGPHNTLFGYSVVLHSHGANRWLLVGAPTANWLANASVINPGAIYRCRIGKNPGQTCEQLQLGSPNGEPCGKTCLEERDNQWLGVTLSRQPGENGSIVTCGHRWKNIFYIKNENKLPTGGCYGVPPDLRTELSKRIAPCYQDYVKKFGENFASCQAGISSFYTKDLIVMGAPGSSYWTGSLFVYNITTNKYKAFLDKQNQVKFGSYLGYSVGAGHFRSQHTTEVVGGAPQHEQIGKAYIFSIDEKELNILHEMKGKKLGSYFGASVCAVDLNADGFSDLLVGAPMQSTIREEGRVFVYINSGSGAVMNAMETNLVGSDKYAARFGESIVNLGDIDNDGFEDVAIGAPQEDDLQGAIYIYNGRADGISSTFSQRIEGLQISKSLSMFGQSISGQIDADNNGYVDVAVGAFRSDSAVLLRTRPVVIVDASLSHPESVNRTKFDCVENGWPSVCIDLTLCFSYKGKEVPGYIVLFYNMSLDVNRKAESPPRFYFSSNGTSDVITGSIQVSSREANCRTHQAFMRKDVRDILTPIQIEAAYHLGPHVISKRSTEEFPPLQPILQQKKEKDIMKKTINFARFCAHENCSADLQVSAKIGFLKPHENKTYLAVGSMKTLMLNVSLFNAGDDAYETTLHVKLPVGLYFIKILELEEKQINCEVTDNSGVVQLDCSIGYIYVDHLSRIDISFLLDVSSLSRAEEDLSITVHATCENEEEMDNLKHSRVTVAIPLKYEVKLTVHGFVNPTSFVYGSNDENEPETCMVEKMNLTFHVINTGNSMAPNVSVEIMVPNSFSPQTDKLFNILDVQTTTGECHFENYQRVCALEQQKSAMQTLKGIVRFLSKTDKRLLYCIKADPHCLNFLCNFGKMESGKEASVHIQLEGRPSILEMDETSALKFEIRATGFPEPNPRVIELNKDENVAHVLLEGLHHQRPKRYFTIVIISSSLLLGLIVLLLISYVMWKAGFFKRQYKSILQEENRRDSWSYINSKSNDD
T2 sequence (P26010 20-798): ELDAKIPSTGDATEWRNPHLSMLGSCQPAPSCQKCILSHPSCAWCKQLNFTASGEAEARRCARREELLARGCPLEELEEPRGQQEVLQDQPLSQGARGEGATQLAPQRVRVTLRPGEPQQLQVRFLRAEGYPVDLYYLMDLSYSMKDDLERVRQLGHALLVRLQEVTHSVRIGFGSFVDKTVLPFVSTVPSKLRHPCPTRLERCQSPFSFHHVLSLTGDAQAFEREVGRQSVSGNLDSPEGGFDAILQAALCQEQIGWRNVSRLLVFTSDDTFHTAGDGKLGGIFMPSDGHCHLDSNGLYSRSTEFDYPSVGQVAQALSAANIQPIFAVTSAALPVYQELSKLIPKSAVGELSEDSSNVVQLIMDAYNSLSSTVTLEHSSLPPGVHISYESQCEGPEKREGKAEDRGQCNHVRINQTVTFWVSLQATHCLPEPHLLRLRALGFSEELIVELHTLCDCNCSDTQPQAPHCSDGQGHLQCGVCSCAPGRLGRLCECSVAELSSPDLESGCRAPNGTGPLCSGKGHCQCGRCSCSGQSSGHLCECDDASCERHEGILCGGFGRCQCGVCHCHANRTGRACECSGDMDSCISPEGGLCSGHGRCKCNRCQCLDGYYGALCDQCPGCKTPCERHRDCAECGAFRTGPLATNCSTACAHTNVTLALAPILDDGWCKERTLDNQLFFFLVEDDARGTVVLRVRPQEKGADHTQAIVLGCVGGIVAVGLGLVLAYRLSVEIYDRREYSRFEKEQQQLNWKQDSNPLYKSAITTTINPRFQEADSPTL
Protocol: The recombinant zz-MAdCAM was absorbed onto Maxisorp plate pre-coated for 2.5 hours at 37° C. with 100 μL of human IgG, and then washed twice with PBS. For capture the recombinant zz-MAdCAM was diluted to the appropriate concentration in 3% BSA/PBS, 100 μl added to each well, and incubated overnight at 4° C. Prior to use plates were washed twice in PBS.
For the α4β7 adhesion assay RPMI8866 cells were washed in cation free HBSS supplemented with 1 mM EDTA, pelleted and labelled by incubating with BCECF (Molecular Probes) in cation-free HBSS at 37° C. for 10 minutes. At this stage cells were also co-incubated with […] human IgG to block endogenous Fc receptors. Cells were then washed once more in cation-free HBSS and then used in the adhesion assay at a final concentration of 3×10^6 cells ml^−1 in the presence of the appropriate treatment as indicated. To prevent cells clumping the assay plate was finally centrifuged at 400 rpm for 3 minutes without the brake. Cells were then incubated for 20 minutes at 37° C. and then washed twice in PBS before reading directly in a plate reader. For antibody inhibition studies the cells were preincubated with the appropriate antibody at […] for 5 minutes at room temperature prior to being placed in the incubator.

α4β1 [2] = assay: J6 cell adhesion to GST-CS-1 (CS-1 fragment of fibronectin); details: J6/CS-1 versus RPMI8866/zz-MAdCAM
Protocol: as §1

α4β1 [3] = biological target: T1, α4β1; assay: J6 cell adhesion to GST fusion proteins of osteopontin (OPN); details: 0.2 mM MnCl2, 35 min 37° C.
Protocol: as §1

T1 sequence (P05556 21-798, one chain of several): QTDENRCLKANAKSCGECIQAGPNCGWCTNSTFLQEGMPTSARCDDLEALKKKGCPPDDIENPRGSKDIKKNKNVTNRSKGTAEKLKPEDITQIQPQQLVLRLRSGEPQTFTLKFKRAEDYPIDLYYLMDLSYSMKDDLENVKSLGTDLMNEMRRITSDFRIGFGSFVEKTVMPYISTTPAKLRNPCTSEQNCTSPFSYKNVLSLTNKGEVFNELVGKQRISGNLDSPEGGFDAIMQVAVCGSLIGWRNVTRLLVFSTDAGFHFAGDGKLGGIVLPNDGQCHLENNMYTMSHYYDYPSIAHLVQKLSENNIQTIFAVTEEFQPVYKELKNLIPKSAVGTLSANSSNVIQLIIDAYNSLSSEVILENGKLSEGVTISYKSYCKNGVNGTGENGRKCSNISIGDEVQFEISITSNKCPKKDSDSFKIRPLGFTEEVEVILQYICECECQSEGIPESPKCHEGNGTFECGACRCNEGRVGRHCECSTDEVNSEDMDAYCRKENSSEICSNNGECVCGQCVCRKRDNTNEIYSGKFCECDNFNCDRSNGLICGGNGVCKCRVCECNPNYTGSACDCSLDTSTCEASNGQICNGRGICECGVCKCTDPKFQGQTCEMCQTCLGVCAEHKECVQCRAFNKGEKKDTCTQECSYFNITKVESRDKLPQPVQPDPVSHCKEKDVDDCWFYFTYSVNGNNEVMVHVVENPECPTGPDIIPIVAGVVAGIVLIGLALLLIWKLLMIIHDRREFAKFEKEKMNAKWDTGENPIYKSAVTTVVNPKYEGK

FPTDLPA (listed as Homo sapiens) [synthetic peptide of OPN aa136-142]
Inhibition of J6 cell binding to CS-1 over the scrambled control at lower matrix concentrations (α4β1 [1]; lower matrix concentrations, data not shown): weak inhibition | Inhibition of J6 cell adhesion to GST-CS-1 by synthetic peptide (α4β1-CS-1 interaction) (α4β1 [1]): unable to inhibit binding to CS-1

GRVLYSV (Synthesized and/or Homo sapiens) [scrambled control peptide of SVVYGLR, reference compound]
Inhibition of RPMI8866 cell adhesion to zz-MAdCAM by synthetic peptide (α4β7): no effect

Gly166: SVVYGLR synthetic peptide in which Gly166 is mutated to alanine (SVVYALR; SVVYGLR peptide; UniProt P10451 162-168, looked up, variant G166A)
Selectivity between α4β1 and α4β7 on mutating the residue (α4β1 [2]): introduces a degree of selectivity

Leu167: SVVYGLR synthetic peptide in which Leu167 is mutated to alanine (SVVYGAR; SVVYGLR peptide; UniProt P10451 162-168, looked up, variant L167A)
Relative potency compared to parent peptide SVVYGLR against α4β1 (J6 adhesion to GST-CS-1) (α4β1 [1]): relative potency similar to that observed with the blocked peptide | Relative potency compared to parent peptide SVVYGLR against α4β7 (RPMI8866 adhesion to zz-MAdCAM) (α4β7): relative potency similar to that observed with the blocked peptide

SVVYGLR (VARIANT 2 The carboxy terminal end can be, for example COO-, COOH, or CONH2, see specification, for example Figures 10, 11, and 13; listed as Homo sapiens) [synthetic peptide of OPN aa162-168]
Potency at blocking J6 adhesion to CS-1 compared with the CS-1 peptide itself (α4β1 [1]): only slightly less potent | Inhibition of J6 cell adhesion to GST-CS-1 by synthetic peptide (α4β1-CS-1 interaction) (α4β1 [1]): blocked adhesion to CS-1 | Inhibition of RPMI8866 cell adhesion to zz-MAdCAM by synthetic peptide (α4β7): inhibited adhesion

SVVYGLR-CONH2 (SVVYGLR-NH2; listed as Homo sapiens) [SVVYGLR (SEQ ID NO: 4)-CONH2, capped peptide lacking the acidic carboxy terminus]
Inhibition of J6 cell adhesion to GST-CS-1 by synthetic peptide (α4β1-CS-1 interaction) (α4β1 [1]): abrogated the ability | Inhibition of RPMI8866 cell adhesion to zz-MAdCAM by synthetic peptide (α4β7): abrogated the ability

Tyr165: SVVYGLR synthetic peptide in which Tyr165 is mutated to alanine (SVVAGLR; SVVYGLR peptide; UniProt P10451 162-168, looked up, variant Y165A)
Relative potency compared to parent peptide SVVYGLR against α4β1 (J6 adhesion to GST-CS-1) (α4β1 [1]): reduced the potency | Relative potency compared to parent peptide SVVYGLR against α4β7 (RPMI8866 adhesion to zz-MAdCAM) (α4β7): reduced the potency

Val163: SVVYGLR synthetic peptide in which Val163 is mutated to alanine (SAVYGLR; SVVYGLR peptide; UniProt P10451 162-168, looked up, variant V163A)
Relative potency compared to parent peptide SVVYGLR against α4β1 (J6 adhesion to GST-CS-1) (α4β1 [1]): reduced the potency | Relative potency compared to parent peptide SVVYGLR against α4β7 (RPMI8866 adhesion to zz-MAdCAM) (α4β7): reduced the potency

Val164: SVVYGLR synthetic peptide in which Val164 is mutated to alanine (SVAYGLR; SVVYGLR peptide; UniProt P10451 162-168, looked up, variant V164A)
Relative potency compared to parent peptide SVVYGLR against α4β1 (J6 adhesion to GST-CS-1) (α4β1 [1]): minor contribution to binding | Relative potency compared to parent peptide SVVYGLR against α4β7 (RPMI8866 adhesion to zz-MAdCAM) (α4β7): minor contribution to binding

aa17-168: GST fusion protein representing the thrombin cleaved fragment of OPN
Ability of coated GST-OPN fusion protein to support J6 cell adhesion (α4β1 [3]): adhered

aa17-168RAD: GST fusion of thrombin cleaved OPN fragment with RGD motif mutated to RAD
Ability of coated GST-OPN fusion protein to support J6 cell adhesion (α4β1 [3]): did not affect binding

aa17-314: GST fusion protein representing full length human OPN
Ability of coated GST-OPN fusion protein to support J6 cell adhesion (α4β1 [3]): adhered

aa115-168: GST fusion, N-terminal deletion of the thrombin cleaved OPN fragment
Ability of coated GST-OPN fusion protein to support J6 cell adhesion (α4β1 [3]): bound

aa125-168: GST fusion, N-terminal deletion of the thrombin cleaved OPN fragment
Ability of coated GST-OPN fusion protein to support J6 cell adhesion (α4β1 [3]): bound

aa132-146: GST fusion protein of OPN aa132-146 (LVTDFPTDLPATEVF; also: GST fusion protein; UniProt P10451 132-146, looked up, fragment)
Ability of coated GST-OPN fusion protein to support J6 cell adhesion (α4β1 [3]): supported J6 cell adhesion

aa153-168: GST fusion protein of OPN aa153-168, Gly of RGD mutated to Ala (VDTYDGRADSVVYGLR; also: GST fusion protein)
Ability of coated GST-OPN fusion protein to support J6 cell adhesion (α4β1 [3]): supported J6 cell adhesion

Reference: patent publication US7662633B2, “Method of screening for inhibitors of osteopontin” (GlaxoSmithKline LLC, priority 2000, dated 2010)
